Measured values reported in patent publication US20150266925A1 (COMPLIX, published 2015).

How the values were obtained:
human IL-23 [1] = target: T1, human IL-23 (human, UniProt Q9NPF7 20-189; P29460 23-328); test: standard equilibrium ELISA
T1 construct: Bought recombinant heterodimeric cytokine (eBioscience 34-8239-85 for panning; R&D Systems for the splenocyte assay); also called hIL-23; hIL23
T1 sequence (looked up) 1: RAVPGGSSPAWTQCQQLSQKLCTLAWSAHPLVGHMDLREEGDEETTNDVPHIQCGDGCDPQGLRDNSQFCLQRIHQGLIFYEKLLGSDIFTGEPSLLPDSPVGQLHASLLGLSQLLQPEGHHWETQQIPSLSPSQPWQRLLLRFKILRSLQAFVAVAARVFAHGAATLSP
T1 sequence (looked up) 2: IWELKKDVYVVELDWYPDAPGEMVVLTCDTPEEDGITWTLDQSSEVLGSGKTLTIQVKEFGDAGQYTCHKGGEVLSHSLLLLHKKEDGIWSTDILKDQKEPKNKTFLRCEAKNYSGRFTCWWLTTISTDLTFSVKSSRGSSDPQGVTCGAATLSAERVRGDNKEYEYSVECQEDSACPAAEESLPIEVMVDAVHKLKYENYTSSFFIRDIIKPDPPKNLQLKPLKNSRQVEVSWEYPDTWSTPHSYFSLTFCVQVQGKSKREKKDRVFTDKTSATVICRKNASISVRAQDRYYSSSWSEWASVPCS

human IL-23 [2] = target: T1, human IL-23; test: cell-based or functional assay
human IL-23 [3] = target: T1, human IL-23; test: phage-coated ELISA, clone displayed on phage
human IL-23 [4] = target: T1, human IL-23; test: equilibrium ELISA, soluble polypeptide
human IL-23 [5] = target: T1, human IL-23; test: kinetic ELISA, soluble polypeptide
human IL-23 [6] = target: T1, human IL-23; test: standard equilibrium ELISA, soluble polypeptide; MA12

B1: MA12 (designed binder)
chain: MSIQEIQKEIAQIQAVIAGIQKYIYTMTGGSGGSGGGGSGGSGGMSIEEIQKQIAAIQCQIAAIQKQIYAMTGSGGGGSGGSGGGGSGMSIEEIQKQIAAIQEQILAIYKQIMAMVT
notes: also called MAl2
In the case of B1, the “factor better than the non-matured variant C159” value (human IL-23 [1]) is reported as 38 fold, the “functional KD (DB fKD), DB cell assay: Stat3 phosphorylation induced by human IL-23; n data = 2” value (human IL-23 [2]) is reported as 0.35 nM and the “functional KD (Spleno fKD), mouse splenocyte assay: IL-17 production induced by human IL-23; n data = 5” value (human IL-23 [2]) is reported as 0.13 nM. It also gave a Kd (human IL-23 [3]) of 0.08 nM, a Kd (human IL-23 [4]) of 0.11 nM and a Kd (human IL-23 [5]) of 0.26 nM. For the same binder, the koff (human IL-23 [5]) was 0.00021 s⁻¹, the kon (human IL-23 [5]) was 810000 M⁻¹ s⁻¹ and the Kd (human IL-23 [6]) was 0.1 nM.
